Two molecules from US12708677B2, “Contrast agents, methods for preparing contrast agents, and methods of imaging” (Georgia State University Research Foundation, Inc., priority 2008, dated 2026) can be followed below.

Data set [1] in a line: Protein solubility by concentrating to precipitation. The settings on record: current formulation. It counts as physicochemical. How it is done:
Protein was expressed in E. coli as inclusion body and purified using urea refolding and ion-exchange column. N15 labeled protein was expressed in SV medium as GST fusion (Yang et al., Biochem 2006) and purification was by GST-4B affinity column and SP column. Protein was verified by mass spectrometry. Protein concentration was calculated using extinction coefficient of w.t. CD2 of 11,000 (Ye et al., 2001). Protein solubility was determined by concentrating proteins to reach to precipitation using speed vac.

Data set [2] is described as follows: Serum stability in human serum at 37° C., SDS-PAGE. The settings on record: 75% human serum, 37° C., 6 hours. It is filed as in vitro ADME. Here is the method: Serum stability. […] The degradation of the protein (disappearance of 12 kDa protein band) was analyzed by SDS-PAGE and visualized by coomassie blue staining. In parallel, the degradation of the protein was also analyzed by immunoblot using antibodies OX54 or PabCD2. The identities of the 12 kDa bands as CA1.CD2 were always verified by immunobloting using antibody PabCD2.
[…] The degradation of the protein (disappearance of 12 kDa protein band) was analyzed by SDS-PAGE and visualized by coomassie blue staining for protein and idiol staining for PEG moiety. In parallel, the degradation of the protein was also analyzed by immunoblot using antibodies OX54 or PabCD2. The identities of CA1.CD2 and pegylated variants were verified by immunoblotting using antibody PabCD2.and idiol staining.

In the next data set the test system is CD-1 mice. The data set can be described thus: Mouse MR imaging. It counts as in vivo. How it is done: (§1) Mouse MR Imaging. Care of experimental animals was in accordance with institutional guidelines. CD-1 mice (25-30 g, four mice were imaged) were anesthetized with an isoflurane gas mixture. The anesthetized animal was positioned and stabilized with soft-supporting material (e.g., foam) in the scanner in the coil cradle and was kept warm during the MRI scan. The mice were scanned prior to the administration of any contrast agent (pre-contrast). Approximately 50 μl of Gd-CA1.CD2 (~1.2 mM) or Gd-DTPA (~300 mM) were injected into the animal via the tail vein. MR images were collected at different times (indicated). For T1 weighted imaging at 3T, spin echo sequence with TE/TR=15 ms/500 ms was employed. Rectangular Field of View (FOV) at 100/40 mm, an acquisition matrix of 196^2 and 1.1 mm slice thickness without gap were used. Images were collected from both transverse and coronal sections. The in-plane resolution of images was less than 0.5 mm after they were reconstructed to the matrix of 196^2. For T2 weighted imaging at 9.4T, MR images were recorded using a multi-echo Carr-Purcell-Meiboom-Gill (CPMG) sequence. The data were collected and processed by Dicomworks software. The MR signal intensity in several organs was ascertained by the average intensity in ROIs or points within the organs. Signal intensity for each organ was normalized to that of the leg muscle.
as §1, with “Care” for “Mouse MR Imaging. Care”, “(e.g.” for “(e.g.,”

Data set [3] is described as follows: In vitro r1 and r2 proton relaxivity. It counts as physicochemical. Here is the method:
Determination of r1 and r2 Relaxivity Values, Relaxation times, T1 and T2, were determined at 1.5, 3, 9.4 Tesla using a Siemens whole-body MR system (1.5, 3T) or a Bruker MRI scanner (9.4T). T1 was determined using inversion recovery and T2 using a multi-echo Carr-Purcell-Meiboom-Gill (CPMG) sequence. The contrast agent samples (200 μl) with different concentrations were placed in eppendorf tubes. The tubes were placed on a tube rack, which was placed in MRI scanners for the measurement of relaxation times r1 and r2 were calculated based on r1(mM^−1 S^−1)=(1/T1s−1/T1c)/C and r2(mM^−1 S^−1)=(1/T2s−1/T2c)/C, where T1s and T2s are relaxation times with contrast agent and T1c and T2c are relaxation times without contrast agent. C is the concentration of contrast agent in mM (the measured Gd^3+ concentrations by ICP-MS). […]

B1: CA1.CD2: designed Gd^3+-binding protein, domain 1 of rat CD2 with ligand residues Glu15, Glu56, Asp58, Asp62, Asp64 (protein)
chain: RDSGTVWGALGHGIELNIPNFQMTDDIDEVRWERGSTLVAEFKRKMKPFLKSGAFEIDANGDLDIKNLTRDDSGTYNVTVYSTNGTRILNKALDLRILE
For the molecule B1, the solubility in data set [1] is listed as ~ 0.7 mM.

B2: Gd-CA1.CD2: CA1.CD2 in complex with Gd^3+ (protein)
chain: RDSGTVWGALGHGIELNIPNFQMTDDIDEVRWERGSTLVAEFKRKMKPFLKSGAFEIDANGDLDIKNLTRDDSGTYNVTVYSTNGTRILNKALDLRILE
Turning to B2, in data set [2], the “stability of protein-Gd complex in serum” value is “remained intact”. In addition, in the data set with CD-1 mice (3T, ~2.4 μmole Gd/kg via tail vein), the “MRI contrast enhancement, T1 weighted spin echo” value was “greatest enhancement of the MRI contrast observed in the kidney”. For the same molecule, the T2 contrast enhancement entry with CD-1 mice (9.4T) is “strong T2 contrast enhancement”. In addition, in the data set on CD-1 mice (18 hours after administration), the “T1 contrast enhancement in the kidney cortex” value was “diminished substantially”. In the data set with CD-1 mice (mouse, in vivo), the “duration of contrast enhancement at multiple organs” value is 4 to 7 h. The “r1 relative to Gd-DTPA” value in data set [3] (1.5T) is “about 20 fold”. The r1 result was “up to 117 mM^−1 s^−1” in data set [3] (B0 1.5 T); 117 mM⁻¹ s⁻¹ in data set [3] (B0 1.5 T, listed as CA1); 48 mM⁻¹ s⁻¹ in data set [3] (B0 3 T); 6 mM⁻¹ s⁻¹ in data set [3] (B0 9.4 T).
